According to PMC3590988 (The EMBO Journal, 2013):

Key:
Experiment in all cases: BLI
[1] = molecular target: T1, ScWpl1^259–647 D271A D272A (S. cerevisiae, UniProt Q99359 259-647, D271A | D272A)
T1 sequence (looked up): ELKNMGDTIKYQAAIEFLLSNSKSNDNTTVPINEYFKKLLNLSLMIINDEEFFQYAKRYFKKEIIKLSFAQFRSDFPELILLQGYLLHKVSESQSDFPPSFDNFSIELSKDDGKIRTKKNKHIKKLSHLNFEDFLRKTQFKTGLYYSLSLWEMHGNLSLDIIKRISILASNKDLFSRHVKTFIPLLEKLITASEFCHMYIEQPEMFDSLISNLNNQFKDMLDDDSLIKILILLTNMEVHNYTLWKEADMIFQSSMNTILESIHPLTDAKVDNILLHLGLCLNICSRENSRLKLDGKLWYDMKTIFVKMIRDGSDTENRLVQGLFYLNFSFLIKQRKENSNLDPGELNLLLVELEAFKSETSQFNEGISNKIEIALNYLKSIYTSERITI

[2] = molecular target: T2, ScWpl1^259–647 K376Q K377Q K382Q K383Q (S. cerevisiae, UniProt Q99359 259-647, K376Q | K377Q | K382Q | K383Q)
T2 sequence (looked up): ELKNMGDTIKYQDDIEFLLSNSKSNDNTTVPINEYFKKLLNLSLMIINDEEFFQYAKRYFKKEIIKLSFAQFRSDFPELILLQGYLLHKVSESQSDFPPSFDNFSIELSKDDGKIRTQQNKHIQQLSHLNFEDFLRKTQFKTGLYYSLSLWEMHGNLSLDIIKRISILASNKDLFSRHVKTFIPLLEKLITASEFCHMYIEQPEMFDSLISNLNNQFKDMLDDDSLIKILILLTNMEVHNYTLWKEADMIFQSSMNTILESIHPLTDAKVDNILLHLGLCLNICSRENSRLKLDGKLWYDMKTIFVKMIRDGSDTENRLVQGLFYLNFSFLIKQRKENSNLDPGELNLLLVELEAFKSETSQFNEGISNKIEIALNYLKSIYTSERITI

[3] = molecular target: T3, ScWpl1^259–647 N493E N622E (S. cerevisiae, UniProt Q99359 259-647, N493E | N622E)
T3 sequence (looked up): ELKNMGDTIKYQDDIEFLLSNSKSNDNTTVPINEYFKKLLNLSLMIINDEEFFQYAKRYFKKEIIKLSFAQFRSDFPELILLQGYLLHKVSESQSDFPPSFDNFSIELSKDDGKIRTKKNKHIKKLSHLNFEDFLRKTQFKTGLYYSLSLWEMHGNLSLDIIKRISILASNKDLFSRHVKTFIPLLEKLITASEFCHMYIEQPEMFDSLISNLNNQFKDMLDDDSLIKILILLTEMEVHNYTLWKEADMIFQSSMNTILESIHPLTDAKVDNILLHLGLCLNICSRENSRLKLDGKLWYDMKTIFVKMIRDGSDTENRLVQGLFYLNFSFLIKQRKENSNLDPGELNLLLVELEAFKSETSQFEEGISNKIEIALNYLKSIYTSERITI

[4] = molecular target: T4, ScWpl1^259–647 (Wapl domain of Saccharomyces cerevisiae Wpl1), wild type (S. cerevisiae, UniProt Q99359 259-647)
T4 sequence (looked up): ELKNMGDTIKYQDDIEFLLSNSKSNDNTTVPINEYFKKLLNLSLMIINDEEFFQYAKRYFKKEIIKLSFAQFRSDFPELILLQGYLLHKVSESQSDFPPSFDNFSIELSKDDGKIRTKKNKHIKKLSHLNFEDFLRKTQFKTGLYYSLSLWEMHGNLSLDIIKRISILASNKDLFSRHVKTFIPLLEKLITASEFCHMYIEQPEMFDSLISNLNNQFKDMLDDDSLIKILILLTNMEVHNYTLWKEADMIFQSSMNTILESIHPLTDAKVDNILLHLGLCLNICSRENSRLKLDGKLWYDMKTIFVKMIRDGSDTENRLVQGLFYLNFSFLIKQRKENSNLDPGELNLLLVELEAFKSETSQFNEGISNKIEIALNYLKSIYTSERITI

[5] = molecular target: T5, ScWpl1^259–647 N493A N622A L577R (S. cerevisiae, UniProt Q99359 259-647, N493A | N622A | L577R)
T5 sequence (looked up): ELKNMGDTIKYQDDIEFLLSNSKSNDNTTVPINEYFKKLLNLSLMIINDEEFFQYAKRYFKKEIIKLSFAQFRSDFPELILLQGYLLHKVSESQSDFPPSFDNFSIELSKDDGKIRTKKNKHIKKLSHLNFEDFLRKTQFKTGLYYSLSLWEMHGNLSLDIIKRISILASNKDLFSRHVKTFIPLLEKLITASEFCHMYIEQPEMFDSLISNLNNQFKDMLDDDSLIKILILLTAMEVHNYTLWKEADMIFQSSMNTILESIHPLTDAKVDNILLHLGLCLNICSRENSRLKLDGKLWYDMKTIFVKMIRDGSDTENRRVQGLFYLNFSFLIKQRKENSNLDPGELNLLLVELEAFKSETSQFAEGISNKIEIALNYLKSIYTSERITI

[6] = molecular target: T6, ScWpl1^259–647 N493A N622A L532E (S. cerevisiae, UniProt Q99359 259-647, N493A | N622A | L532E)
T6 sequence (looked up): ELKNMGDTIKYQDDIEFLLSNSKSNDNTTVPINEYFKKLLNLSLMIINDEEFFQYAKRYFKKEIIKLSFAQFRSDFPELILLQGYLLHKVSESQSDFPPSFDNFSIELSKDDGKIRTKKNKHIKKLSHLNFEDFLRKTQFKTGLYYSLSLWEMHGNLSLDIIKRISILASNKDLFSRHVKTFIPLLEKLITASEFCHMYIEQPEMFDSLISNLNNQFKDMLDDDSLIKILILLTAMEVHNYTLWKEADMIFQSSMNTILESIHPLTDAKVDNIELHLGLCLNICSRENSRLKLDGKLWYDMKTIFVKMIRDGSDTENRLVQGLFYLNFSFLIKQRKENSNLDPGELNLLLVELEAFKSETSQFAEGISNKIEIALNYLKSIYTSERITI

B1: GST-tagged ScSmc3 ATPase head (ScSmc3^AH), wild type (domain or fragment, S. cerevisiae)
chain: MYIKRVIIKGFKTYRNETIIDNFSPHQNVIIGSNGSGKSNFFAAIRFVLSDDYSNLKREERQGLIHQGSGGSVMSASVEIVFHDPDHSMILPSGVLSRGDDEVTIRRTVGLKKDDYQLNDRNVTKGDIVRMLETAGFSMNNPYNIVPQGKIVALTNAKDKERLQLLEDVVGAKSFEVKLKASLKKMEETESGGSGGKVSENFEAVFERLVPRGTAKLIIHRKNDNANDHDESIDVDMDAESNESQNGKDSEIMYTGVSISVSFNSKQNEQLHVEQLSGGQKTVCAIALILAIQMVDPASFYLFDEIDAALDKQYRTAVATLLKELSKNAQFICTTFRTDMLQVADKFFRVKYENKISTVIEVNREEAIGFIRGSNKFAEV
For B1, the Kd [1] was 167 nM, the koff [1] was 0.000395 s⁻¹ and the kon [1] was 2370 M⁻¹ s⁻¹. It also gave a Kd [2] of 200 nM, a koff [2] of 0.00056 s⁻¹ and a kon [2] of 2800 M⁻¹ s⁻¹. It also gave a Kd [3] of 126 nM, a koff [3] of 0.000492 s⁻¹ and a kon [3] of 3920 M⁻¹ s⁻¹. For the same binder, the Kd [4] was 47 nM, the koff [4] was 0.000248 s⁻¹ and the kon [4] was 5220 M⁻¹ s⁻¹. It also gave a Kd [5] of 77 nM, a koff [5] of 0.000428 s⁻¹ and a kon [5] of 5540 M⁻¹ s⁻¹. The Kd [6] was 82 nM, the koff [6] was 0.000344 s⁻¹ and the kon [6] was 4200 M⁻¹ s⁻¹.

B2: GST-tagged ScSmc3^AH K112N K113N (domain or fragment, S. cerevisiae)
chain: MYIKRVIIKGFKTYRNETIIDNFSPHQNVIIGSNGSGKSNFFAAIRFVLSDDYSNLKREERQGLIHQGSGGSVMSASVEIVFHDPDHSMILPSGVLSRGDDEVTIRRTVGLNNDDYQLNDRNVTKGDIVRMLETAGFSMNNPYNIVPQGKIVALTNAKDKERLQLLEDVVGAKSFEVKLKASLKKMEETESGGSGGKVSENFEAVFERLVPRGTAKLIIHRKNDNANDHDESIDVDMDAESNESQNGKDSEIMYTGVSISVSFNSKQNEQLHVEQLSGGQKTVCAIALILAIQMVDPASFYLFDEIDAALDKQYRTAVATLLKELSKNAQFICTTFRTDMLQVADKFFRVKYENKISTVIEVNREEAIGFIRGSNKFAEV
For B2, the Kd [4] was 88 nM, the koff [4] was 0.000431 s⁻¹ and the kon [4] was 4880 M⁻¹ s⁻¹.

B3: GST-tagged ScSmc3^AH L163A L166A D168A (domain or fragment, S. cerevisiae)
chain: MYIKRVIIKGFKTYRNETIIDNFSPHQNVIIGSNGSGKSNFFAAIRFVLSDDYSNLKREERQGLIHQGSGGSVMSASVEIVFHDPDHSMILPSGVLSRGDDEVTIRRTVGLKKDDYQLNDRNVTKGDIVRMLETAGFSMNNPYNIVPQGKIVALTNAKDKERAQLAEAVVGAKSFEVKLKASLKKMEETESGGSGGKVSENFEAVFERLVPRGTAKLIIHRKNDNANDHDESIDVDMDAESNESQNGKDSEIMYTGVSISVSFNSKQNEQLHVEQLSGGQKTVCAIALILAIQMVDPASFYLFDEIDAALDKQYRTAVATLLKELSKNAQFICTTFRTDMLQVADKFFRVKYENKISTVIEVNREEAIGFIRGSNKFAEV
In the case of B3, the Kd [4] is reported as 104 nM, the koff [4] is reported as 0.000497 s⁻¹ and the kon [4] is reported as 4770 M⁻¹ s⁻¹.

B4: GST-tagged ScSmc3^AH L163D L166D (domain or fragment, S. cerevisiae)
chain: MYIKRVIIKGFKTYRNETIIDNFSPHQNVIIGSNGSGKSNFFAAIRFVLSDDYSNLKREERQGLIHQGSGGSVMSASVEIVFHDPDHSMILPSGVLSRGDDEVTIRRTVGLKKDDYQLNDRNVTKGDIVRMLETAGFSMNNPYNIVPQGKIVALTNAKDKERDQLDEDVVGAKSFEVKLKASLKKMEETESGGSGGKVSENFEAVFERLVPRGTAKLIIHRKNDNANDHDESIDVDMDAESNESQNGKDSEIMYTGVSISVSFNSKQNEQLHVEQLSGGQKTVCAIALILAIQMVDPASFYLFDEIDAALDKQYRTAVATLLKELSKNAQFICTTFRTDMLQVADKFFRVKYENKISTVIEVNREEAIGFIRGSNKFAEV
Binder B4 has a Kd [4] of 102 nM, a koff [4] of 0.000597 s⁻¹ and a kon [4] of 5880 M⁻¹ s⁻¹.
